Assay results reported in patent publication US20260085114A1 (KYINNO BIOTECHNOLOGY, published 2026).
Changes are numbered by the printed parent chain.

B1: humanized antibody 9D7 (hz) (antibody, V domains shown)
VH: QVQLQESGPGLVKPSETLSLTCTVSGYSITSDYAWNWIRQPPGKGLEWMGYISYSGSATYSPSLKSRITISRDTSKNQFSLKLSSVTAADTAVYYCARGGIAGRGRWGAMDYWGQGTTVTVSS
VL: DIQMTQSPSSLSASVGDRVTITCKASQNVGTNVAWYQQKPGQSPKALIYSASYRDSGVPDRFSGSGSGTDFTLTISSLQPEDFATYYCQQYKSYPLTFGQGTRLEIKR
B2: humanized antibody 24F5 (hz) (antibody, V domains shown)
VH: QVQLVQSGAEVKKPGASVKVSCKASGYTFPYYVMHWVRQAPGQGLEWIGYINPYNDGTKYNEKFKGRATLTSDKSTSTAYMELSSLRSEDTAVYYCARGGVRRYFDYWGQGTTVTVSS
VL: DIQMTQSPSTLSASVGDRVTITCRASQDIGSNLNWLQQKPGGTIKRLIYATSSLDSGVPSRFSGSRSGSEYTLTISSLQPDDFATYYCLQYATFPYTFGQGTRLEIKR
B3: humanized antibody 6E97 (hz) (antibody, V domains shown)
VH: B2 VH with M34I, D56A
VL: B2 VL with M4L, Y49S
B4: murine antibody 24F5 (A3 antibody) (antibody, V domains shown)
VH: QVQLKESGPELVKPGASVKISCKASGYTFPYYVMHWVKQKPGQGLEWIGYINPYNDGTKYNEKFKGKAALTSDKSSSTAYMDLSSLTSEDSAVYYCARGGVRRYFDYWGQGTTLTVSS
VL: DIQMTQTPSSLSASLGERVSLTCRASQDIGSNLNWLQQEPDGTIKRLIYATSSLDSGVPKRFSGSRSGSDYSLTISSLESEDFVDYYCLQYATFPYTFGGGTKLEIK
notes: Tested as hybridoma cell culture supernatant; also called murine anti-24F5
B5: humanized anti-CD3 antibody SP34V1 (hz) (antibody, V domains shown)
VH: QVQLVESGGGLVKPGGSLRLSCAASGFTFSTYAMNWVRQAPGKGLEWVGRIRSKYNNYATYYADSVKDRFTISRDDAKNSLYLQMNSLRAEDTAVYYCARHGNFGNSYVSYFAYWGQGTTVTVSS
VL: DIQMTQSPSSLSASVGDRVTITCRSSTGAVTTSNYANWVQQKPGKAPKALIGGTNKRAPGVPSRFSGSLSGDDATLTISSLQPEDFATYYCALWYSNLWVFGQGTRLEIKR
B6: humanized antibody 26D1 (hz) (antibody, V domains shown)
VH: QVQLVQSGAEVKKPGASVKVSCKASGYTFTSYTIQWIKQAPGQGLEWIGYIIPSSGYTNYNQKFKDKATLTADKSSNTAYMELSSLTSEDTAVYYCANNYGNWGFTYWGQGTTVTVSS
VL: DIQMTQSPSTLSASVGDRVTITCKASQNVGSAVTWYQQKPGKAPRLLIYSASNRYTGVPDRFSGSGSGTEFTLTISSLQPDDFATYFCQQYSNYPLTFGQGTRLEIKR

What was measured:
[1] = target: T1, human GPRC5B, on 293T cells (human, UniProt Q9NZH0 29-403); experiment: FACS on 293T-GPRC5B cells, antibody at 2 µg/mL; control tubes 8.55 and 8.26
T1 construct: whole, on cells; also called 293T-GPRC5B
T1 sequence (Q9NZH0 29-403): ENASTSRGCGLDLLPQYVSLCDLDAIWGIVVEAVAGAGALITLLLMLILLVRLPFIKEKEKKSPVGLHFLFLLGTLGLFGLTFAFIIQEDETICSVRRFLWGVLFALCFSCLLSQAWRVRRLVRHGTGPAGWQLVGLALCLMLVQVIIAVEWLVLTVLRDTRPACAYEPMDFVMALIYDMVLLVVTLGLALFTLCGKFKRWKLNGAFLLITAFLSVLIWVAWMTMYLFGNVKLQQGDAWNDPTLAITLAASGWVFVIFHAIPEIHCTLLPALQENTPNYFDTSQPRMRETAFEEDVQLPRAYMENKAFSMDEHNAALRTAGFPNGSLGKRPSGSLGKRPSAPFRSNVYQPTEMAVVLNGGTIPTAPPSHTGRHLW
Method: (§1) 100 μl of FACS buffer was then added to each FACS tube for resuspension. 5 μl of PE-labeled, anti-murine Fc tagged secondary antibody (Biolegend, catalog number 409304) was added according to instructions, and incubated at 4° C. in the dark for 30 mins. Then 1 ml of FACS buffer was added, and centrifuged at 1200 rpm at room temperature for 5 mins. The supernatant was discarded followed by washing three times.
(§2) The experimental process was as described in Example 4, cells expressing other members of G protein-coupled receptor class C group 5 as follows were used: 293T cells expressing human GPRC5A, 293T-GPRC5A (Kyinno, catalog number KC-1888), 293T cells expressing human GPRC5B, 293T-GPRC5B (Kyinno, catalog number KC-1854), and 293T cells expressing human GPRC5C, 293T-GPRC5C (Kyinno, catalog number KC-1889). […] Control tube 1 (no antibody and secondary antibody, adding only cell suspension) and Control tube 2 (no antibody, adding only cell suspension and secondary antibody) were included.

[2] = target: T2, monkey (cyno) GPRC5D, on 293T cells (monkey (cyno)); experiment: FACS on 293T cells expressing monkey (cyno) GPRC5D
T2 construct: whole, on cells; also called monkey GPRC5D
Method: as §1
(§3) The experimental process was as described in Example 4. […] Control tube 1 (no antibody and secondary antibody, adding only cell suspension) and Control tube 2 (no antibody, adding only cell suspension and secondary antibody) were included.

[3] = target: T3, human GPRC5D (G protein-coupled receptor class C group 5 member D), on cells (human, UniProt Q9NZD1 1-345); experiment: FACS on MOLP8 multiple myeloma cells
T3 construct: whole, on cells; also called hGPRC5D
T3 sequence (Q9NZD1 whole entry): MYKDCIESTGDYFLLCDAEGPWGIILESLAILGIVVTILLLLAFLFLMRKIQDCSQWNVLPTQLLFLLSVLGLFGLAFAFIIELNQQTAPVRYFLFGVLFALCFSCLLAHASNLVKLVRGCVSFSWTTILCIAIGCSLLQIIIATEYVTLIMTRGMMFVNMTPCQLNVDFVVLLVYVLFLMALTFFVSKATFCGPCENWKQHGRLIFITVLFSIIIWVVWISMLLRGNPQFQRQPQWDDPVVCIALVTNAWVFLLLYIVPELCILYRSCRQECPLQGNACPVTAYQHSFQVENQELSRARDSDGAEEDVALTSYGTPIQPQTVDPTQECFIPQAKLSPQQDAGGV
Method: as §1
as §3, with “4, and the cells used were replaced with multiple myeloma cells MM.1R (Kyinno, catalog number KC-0619) and MOLP8 (Kyinno, catalog number KC-0622).” for “4.”

[4] = target: T4, human GPRC5A, on 293T cells (human, UniProt Q8NFJ5 1-357); experiment: FACS on 293T-GPRC5A cells, antibody at 2 µg/mL; control tubes 8.30 and 8.41
T4 construct: whole, on cells; also called 293T-GPRC5A
T4 sequence (Q8NFJ5 whole entry): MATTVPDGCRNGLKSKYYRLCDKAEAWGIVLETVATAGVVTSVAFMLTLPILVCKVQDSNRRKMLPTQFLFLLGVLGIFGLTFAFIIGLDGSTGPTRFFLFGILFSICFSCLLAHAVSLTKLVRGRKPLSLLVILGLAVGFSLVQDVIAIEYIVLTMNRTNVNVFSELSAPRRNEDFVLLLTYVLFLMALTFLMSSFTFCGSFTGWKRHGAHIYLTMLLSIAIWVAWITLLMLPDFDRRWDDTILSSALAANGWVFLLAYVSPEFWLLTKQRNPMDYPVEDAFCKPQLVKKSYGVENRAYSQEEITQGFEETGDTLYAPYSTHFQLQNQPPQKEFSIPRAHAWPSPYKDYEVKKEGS
Method: as §1, §2

[5] = target: T3, human GPRC5D (G protein-coupled …); experiment: cell-based or functional assay
[6] = target: T3, human GPRC5D (G protein-coupled …); experiment: FACS on MM.1R multiple myeloma cells
Method: as §1
as §3, with “4, and the cells used were replaced with multiple myeloma cells MM.1R (Kyinno, catalog number KC-0619) and MOLP8 (Kyinno, catalog number KC-0622).” for “4.”

[7] = target: T3, human GPRC5D (G protein-coupled …); experiment: FACS on 293T cells expressing human GPRC5D
Method: as §1
Control tube 1 (no antibody and secondary antibody, adding only the cell suspension) and Control tube 2 (no antibody, adding only the cell suspension and the secondary antibody) were included.

[8] = target: T5, human GPRC5C, on 293T cells (human, UniProt Q9NQ84 24-441); experiment: FACS on 293T-GPRC5C cells, antibody at 2 µg/mL; control tubes 8.86 and 8.73
T5 construct: whole, on cells; also called 293T-GPRC5C
T5 sequence (Q9NQ84 24-441): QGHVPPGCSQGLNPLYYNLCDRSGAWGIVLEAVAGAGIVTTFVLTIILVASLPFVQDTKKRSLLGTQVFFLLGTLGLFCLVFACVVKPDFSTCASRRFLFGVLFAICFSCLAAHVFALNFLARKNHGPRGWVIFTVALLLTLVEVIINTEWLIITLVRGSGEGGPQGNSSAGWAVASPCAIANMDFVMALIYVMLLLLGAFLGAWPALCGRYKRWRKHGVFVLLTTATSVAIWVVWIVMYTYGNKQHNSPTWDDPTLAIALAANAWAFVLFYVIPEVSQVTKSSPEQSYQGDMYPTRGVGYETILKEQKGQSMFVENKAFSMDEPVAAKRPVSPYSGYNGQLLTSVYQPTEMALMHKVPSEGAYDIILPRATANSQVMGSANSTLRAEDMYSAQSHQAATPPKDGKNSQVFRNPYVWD
Method: as §1, §2

[9] = target: T6, human GPRC5D protein (KACTUS, catalog number GPR-HM05P) (human, UniProt Q9NZD1 1-345, limits assumed); experiment: Fortebio BLI, antibody captured on AHC chip, human GPRC5D protein as analyte
T6 construct: Bought reagent used as analyte in the Fortebio assay; the construct is not described
T6 sequence (Q9NZD1 whole entry): as the sequence (Q9NZD1 whole entry) above
Method: Antibodies to be tested were prepared into solutions at concentration of 10 μg/mL using PBS buffer, and the antibodies were captured using the AHC chip according to Fortebio's instructions. The pre-prepared human GPRC5D proteins (KACTUS, catalog number GPR-HM05P) (protein starting at a highest concentration of 200 nM, 2-fold diluted, 6 gradients) were flowed through the chip, with the following specific conditions: flow rate 30 μl/min; antigen-antibody binding time 200 seconds, dissociation time 500 seconds. The measured results were fitted using the supporting software designed for the device to analyze the affinity between an antibody and an antigen.

[10] = target: T3, human GPRC5D (G protein-coupled …); experiment: FACS, hybridoma supernatant on 293T cells expressing human GPRC5D
Method: 293T cells expressing human GPRC5D as described above was prepared into a suspension at concentration of 1×10⁵ cells/ml in PBS containing 2% FBS.
1 ml of FACS buffer was added to each FACS tube, centrifuged at 1200 rpm for 5 mins. The supernatant was discarded followed by washing three times. At the same time, control tube 1 (no supernatant of the culture and the secondary antibody mentioned below, adding only cell suspension) and control tube 2 (no supernatant of the culture, adding only cell suspension and the secondary antibody mentioned below) were included.
as §1

[11] = target: T7, Nalm6 cells (NALM6, Kyinno, catalog number KC-0626); experiment: FACS, hybridoma supernatant on Nalm6 cells
T7 construct: Kept apart from human GPRC5D so that the low MFI values on this line are not laid to the GPRC5D pair

[12] = target: T3, human GPRC5D (G protein-coupled …); experiment: FACS, hybridoma supernatant on OPM2 cells
[13] = target: T3, human GPRC5D (G protein-coupled …); experiment: FACS, hybridoma supernatant on NCI-H929 cells
Method: as §1

[14] = target: T2, monkey (cyno) GPRC5D, on 293T cells; experiment: FACS, hybridoma supernatant on 293T cells expressing monkey GPRC5D
From the text: According to the method described in Example 4, the binding between the culture supernatant of the hybridoma cells and monkey GPRC5D was detected, except that the human GPRC5D-expressing cells were replaced with 293T cells expressing monkey GPRC5D (Kyinno, catalog number KC-1586).

[15] = target: T3, human GPRC5D (G protein-coupled …); experiment: cell ELISA, hybridoma supernatant on fixed BXPC-3 cells expressing human GPRC5D
Method: BXPC-3 cells expressing human GPRC5D (Kyinno, catalog number KC-1717) were prepared into a suspension at concentration of 1×10⁵ cells/ml in PBS containing 2% FBS. The suspension was added to a 96-well plate at 100 μl/well and cultured overnight at 37° C. The wells were cleared of their contents and washed three times with washing solution. 80 μl of 4% tissue fixative (Beyotime, catalog number P0099) was added to each well followed by fixing at room temperature for 15 min, washing twice with PBS and drying. 250 μl of blocking solution containing 2% BSA was added to each well followed by incubation at 37° C. for 1 hr and washing three times with PBS. 50-100 μl of the supernatant of the hybridoma cell culture was added to each well. A positive control (adding serum from fusion mice), a negative control (adding serum from normal mice) and a blank control (adding culture medium) were included. The wells were incubated at 37° C. for 1-2 hrs, washed, and dried. Then, the enzyme-labeled secondary antibody, HRP-labeled goat anti-mouse IgG (SIGMA, catalog number A9044-2 ml) was added at dilution of 1:10000 and 50-100 μl/well. The wells were incubated at 37° C. for 1-2 hrs, washed, and dried. 50-100 μl of freshly prepared developing solution TMB was added to each well and incubated at 37° C. for 10-30 mins.
2 mol/L H₂SO₄ was added to terminate the reaction, and the OD value was read on an enzyme-linked immunosorbent reader.

[16] = target: T3, human GPRC5D (G protein-coupled …); experiment: FACS, hybridoma supernatant on MM1R cells
[17] = target: human CD3 protein (KACTUS) (human); experiment: Fortebio BLI, antibody captured on AHC chip, human CD3 protein as analyte
Chain of human CD3 protein (KACTUS) (human) (chain, as listed by the source): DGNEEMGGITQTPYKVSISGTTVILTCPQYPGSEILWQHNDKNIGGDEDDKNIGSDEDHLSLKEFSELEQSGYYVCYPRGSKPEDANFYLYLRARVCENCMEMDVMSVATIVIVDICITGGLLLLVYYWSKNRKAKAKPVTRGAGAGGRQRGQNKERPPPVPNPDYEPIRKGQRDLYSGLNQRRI

Row | Binder | FACS result [1] | EC50 [2] | MFI.Max [2] | EC50 [3] | MFI.Max [3] | FACS result [4] | ADCC reporter (Jurkat-NFAT-luc-CD16-V158 luciferase), Top [5] | EC50 [6] | MFI.Max [6] | EC50 [7] | MFI.Max [7] | FACS result [8] | Kd [9] | koff [9] | kon [9] | further results
1 | B1 | 8.54 | 0.378 µg/mL | 4260 MFI | 0.313 µg/mL | 128 MFI | 8.34 | 24.5 | 0.09 µg/mL | 150 MFI | 0.283 µg/mL | 8940 MFI | 8.48 | < 0.001 nM | < 1e-07 s⁻¹ | 22600 M⁻¹ s⁻¹ | 
2 | B2 | 8.58 | 0.167 µg/mL | 3560 MFI | 0.581 µg/mL | 133 MFI | 8.45 | 25.4 | 0.0682 µg/mL | 177 MFI | 0.7 µg/mL | 8910 MFI | 8.97 | 1.36 nM | 5.42e-05 s⁻¹ | 39900 M⁻¹ s⁻¹ | 
3 | B3 | 8.62 | 0.192 µg/mL | 6250 MFI | 0.256 µg/mL | 144 MFI | 8.54 | 32.8 | 0.146 µg/mL | 246 MFI | 0.351 µg/mL | 14800 MFI | 8.78 | 0.458 nM | 2.08e-05 s⁻¹ | 45500 M⁻¹ s⁻¹ | 
4 | B4 |  |  |  |  |  |  |  |  |  |  |  |  |  |  |  | EC50 [10]: 0.117 µg/mL; MFI.Max [10]: 9520 MFI; MFI.Max [11]: 106 MFI; EC50 [12]: 5.67 µg/mL; MFI.Max [12]: 1190 MFI; MFI.Max [13]: 1100 MFI; EC50 [14]: 0.268 µg/mL; MFI.Max [14]: 6260 MFI; OD value [15]: 1.54 OD; MFI.Max [16]: 991 MFI
5 | B5 |  |  |  |  |  |  |  |  |  |  |  |  |  |  |  | Kd [17]: 18 nM; koff [17]: 0.00795 s⁻¹; kon [17]: 442000 M⁻¹ s⁻¹
6 | B6 | 8.59 |  | 12.3 MFI | 0.964 µg/mL | 78 MFI | 8.46 | 18.4 | 0.571 µg/mL | 185 MFI | 0.228 µg/mL | 9560 MFI | 8.89 | 1.7 nM | 3.15e-05 s⁻¹ | 18500 M⁻¹ s⁻¹ | ADCC reporter (Jurkat-NFAT-luc-CD16-V158 luciferase), EC50 [5]: 0.0452 µg/mL
